Laboratory results as given in the RNAGym collection of RNA variant scans (doi:10.7554/elife.90254).

B1: LINE1-mini (parent)
chain: GGCAGAGCUCAACACAGCGUGGCAAAGUGGCUGUGGCUAGACUGCC

Variants of: B1
Assay: self-cleavage, relative activity (ratio to wild type); higher = more cleavage; in vitro, sequencing; the parent is a self-cleaving ribozyme

Q: With GGCAGAGCUCUAGACAGCGUGGCAAAGUGGCUGUGGCUAGACUGCC [A11U C13G] as the variant, how does the self-cleavage read?
A: Its self-cleavage is 0.03.

Q: For GGCAGAGCUCUAUACAGCGUGGCAAAGUGGCUGUGGCUAGACUGCC [A11U C13U], which self-cleavage is on record?
A: Its self-cleavage is 0.04.

Q: For GGCAGAGCUCUAAACAGCGUGGCAAAGUGGCUGUGGCUAGACUGCC [A11U C13A], which self-cleavage is on record?
A: Its self-cleavage is 0.02.

Q: Which self-cleavage does the source give for GGCAGAGCUCGACACAGCGUGGCAAAGAGGCUGUGGCUAGACUGCC [A11G U28A] here?
A: The self-cleavage was 0.03.

Q: With GGCAGAGCUCGACACAGCGUGGCAAAGGGGCUGUGGCUAGACUGCC [A11G U28G] as the variant, how does the self-cleavage read?
A: Its self-cleavage is 0.02.

Q: Which self-cleavage does the source give for GGCAGAGCUCGACACAGCGUGGCAAAGCGGCUGUGGCUAGACUGCC [A11G U28C] here?
A: Its self-cleavage is 0.03.

Q: Which self-cleavage does the source give for GGCAGAGCUCUACACAGCGUGGCAAAAUGGCUGUGGCUAGACUGCC [A11U G27A] here?
A: Its self-cleavage is 0.16.

Q: For GGCAGAGCUCUACACAGCGUGGCAAAUUGGCUGUGGCUAGACUGCC [A11U G27U], which self-cleavage is on record?
A: The self-cleavage was 0.13.

Q: Which self-cleavage does the source give for GGCAGAGCUCUACACAGCGUGGCAAACUGGCUGUGGCUAGACUGCC [A11U G27C] here?
A: Its self-cleavage is 0.14.

Q: Which self-cleavage does the source give for GGCAGAGCUCGACACAGCGUGGCAAAGUGGCUGUGGCUAGACUUCC [A11G G44U] here?
A: Its self-cleavage is 0.01.

Q: For GGCAGAGCUCGACACAGCGUGGCAAAGUGGCUGUGGCUAGACUACC [A11G G44A], which self-cleavage is on record?
A: The self-cleavage was 0.03.

Q: With GGCAGAGCUCGACACAGCGUGGCAAAGUGGCUGUGGCUAGACUCCC [A11G G44C] as the variant, how does the self-cleavage read?
A: Its self-cleavage is 0.03.

Q: With GGCAGAGCUCUACACAGCGUGGCGAAGUGGCUGUGGCUAGACUGCC [A11U A24G] as the variant, how does the self-cleavage read?
A: The self-cleavage was 0.15.

Q: With GGCAGAGCUCUACACAGCGUGGCCAAGUGGCUGUGGCUAGACUGCC [A11U A24C] as the variant, how does the self-cleavage read?
A: The self-cleavage was 0.15.

Q: Which self-cleavage does the source give for GGCAGAGCUCUACACAGCGUGGCUAAGUGGCUGUGGCUAGACUGCC [A11U A24U] here?
A: The self-cleavage was 0.21.

Q: With GGCAGAGCUCUACACAGCGUGGCACAGUGGCUGUGGCUAGACUGCC [A11U A25C] as the variant, how does the self-cleavage read?
A: Its self-cleavage is 0.11.

Q: For GGCAGAGCUCUACACAGCGUGGCAUAGUGGCUGUGGCUAGACUGCC [A11U A25U], which self-cleavage is on record?
A: Its self-cleavage is 0.37.

Q: With GGCAGAGCUCUACACAGCGUGGCAGAGUGGCUGUGGCUAGACUGCC [A11U A25G] as the variant, how does the self-cleavage read?
A: Its self-cleavage is 0.07.

Q: With GGCAGAGCUCUACACAGCGUGGCAAAGUGGCUGUGGCUAGUCUGCC [A11U A41U] as the variant, how does the self-cleavage read?
A: Its self-cleavage is 0.27.

Q: For GGCAGAGCUCUACACAGCGUGGCAAAGUGGCUGUGGCUAGCCUGCC [A11U A41C], which self-cleavage is on record?
A: The self-cleavage was 0.04.

Q: Which self-cleavage does the source give for GGCAGAGCUCUACACAGCGUGGCAAAGUGGCUGUGGCUAGGCUGCC [A11U A41G] here?
A: The self-cleavage was 0.05.

Q: For GGCAGAGCUCUACACAGCGUGGUAAAGUGGCUGUGGCUAGACUGCC [A11U C23U], which self-cleavage is on record?
A: Its self-cleavage is 0.1.

Q: For GGCAGAGCUCUACACAGCGUGGAAAAGUGGCUGUGGCUAGACUGCC [A11U C23A], which self-cleavage is on record?
A: Its self-cleavage is 0.16.

Q: With GGCAGAGCUCUACACAGCGUGGGAAAGUGGCUGUGGCUAGACUGCC [A11U C23G] as the variant, how does the self-cleavage read?
A: The self-cleavage was 0.11.

Q: For GGCAGAGCUCGACACAGCGCGGCAAAGUGGCUGUGGCUAGACUGCC [A11G U20C], which self-cleavage is on record?
A: Its self-cleavage is 0.03.

Q: For GGCAGAGCUCGACACAGCGGGGCAAAGUGGCUGUGGCUAGACUGCC [A11G U20G], which self-cleavage is on record?
A: The self-cleavage was 0.03.

Q: For GGCAGAGCUCGACACAGCGAGGCAAAGUGGCUGUGGCUAGACUGCC [A11G U20A], which self-cleavage is on record?
A: Its self-cleavage is 0.04.

Q: With GGCAGAGCUCUACACACCGUGGCAAAGUGGCUGUGGCUAGACUGCC [A11U G17C] as the variant, how does the self-cleavage read?
A: Its self-cleavage is 0.12.

Q: For GGCAGAGCUCUACACAUCGUGGCAAAGUGGCUGUGGCUAGACUGCC [A11U G17U], which self-cleavage is on record?
A: Its self-cleavage is 0.03.

Q: Which self-cleavage does the source give for GGCAGAGCUCUACACAACGUGGCAAAGUGGCUGUGGCUAGACUGCC [A11U G17A] here?
A: Its self-cleavage is 0.04.

Q: Which self-cleavage does the source give for GGCAGAGCUCGACACAGCGUGGCAAAGUGGCUGUGGCUAUACUGCC [A11G G40U] here?
A: Its self-cleavage is 0.03.

Q: With GGCAGAGCUCGACACAGCGUGGCAAAGUGGCUGUGGCUACACUGCC [A11G G40C] as the variant, how does the self-cleavage read?
A: Its self-cleavage is 0.02.

Q: With GGCAGAGCUCGACACAGCGUGGCAAAGUGGCUGUGGCUAAACUGCC [A11G G40A] as the variant, how does the self-cleavage read?
A: Its self-cleavage is 0.03.

Q: Which self-cleavage does the source give for GGCAGAGCUCUGCACAGCGUGGCAAAGUGGCUGUGGCUAGACUGCC [A11U A12G] here?
A: Its self-cleavage is 0.03.

Q: For GGCAGAGCUCUUCACAGCGUGGCAAAGUGGCUGUGGCUAGACUGCC [A11U A12U], which self-cleavage is on record?
A: Its self-cleavage is 0.07.

Q: With GGCAGAGCUCUCCACAGCGUGGCAAAGUGGCUGUGGCUAGACUGCC [A11U A12C] as the variant, how does the self-cleavage read?
A: The self-cleavage was 0.04.

Q: For GGCAGAGCUCUACACAGCGUGGCAAAGUGGCUGUGGCUAGACUGUC [A11U C45U], which self-cleavage is on record?
A: The self-cleavage was 0.23.

Q: For GGCAGAGCUCUACACAGCGUGGCAAAGUGGCUGUGGCUAGACUGGC [A11U C45G], which self-cleavage is on record?
A: Its self-cleavage is 0.04.

Q: Which self-cleavage does the source give for GGCAGAGCUCUACACAGCGUGGCAAAGUGGCUGUGGCUAGACUGAC [A11U C45A] here?
A: The self-cleavage was 0.05.

Q: Which self-cleavage does the source give for GGCAGAGCUCUACACAGCGUGGCAAAGUGGCUGUGGUUAGACUGCC [A11U C37U] here?
A: The self-cleavage was 0.01.

Q: With GGCAGAGCUCUACACAGCGUGGCAAAGUGGCUGUGGAUAGACUGCC [A11U C37A] as the variant, how does the self-cleavage read?
A: The self-cleavage was 0.02.

Q: For GGCAGAGCUCUACACAGCGUGGCAAAGUGGCUGUGGGUAGACUGCC [A11U C37G], which self-cleavage is on record?
A: The self-cleavage was 0.02.

Q: With GGCAGAGCUCUACACAGCGUGGCAAAGUGGCUUUGGCUAGACUGCC [A11U G33U] as the variant, how does the self-cleavage read?
A: The self-cleavage was 0.04.

Q: Which self-cleavage does the source give for GGCAGAGCUCUACACAGCGUGGCAAAGUGGCUAUGGCUAGACUGCC [A11U G33A] here?
A: Its self-cleavage is 0.03.

Q: Which self-cleavage does the source give for GGCAGAGCUCUACACAGCGUGGCAAAGUGGCUCUGGCUAGACUGCC [A11U G33C] here?
A: The self-cleavage was 0.02.

Q: Which self-cleavage does the source give for GGCAGAGCUCGACACAGCGUGGCAAAGUGGCUGUCGCUAGACUGCC [A11G G35C] here?
A: Its self-cleavage is 0.02.

Q: With GGCAGAGCUCGACACAGCGUGGCAAAGUGGCUGUAGCUAGACUGCC [A11G G35A] as the variant, how does the self-cleavage read?
A: Its self-cleavage is 0.05.

Q: With GGCAGAGCUCGACACAGCGUGGCAAAGUGGCUGUUGCUAGACUGCC [A11G G35U] as the variant, how does the self-cleavage read?
A: The self-cleavage was 0.03.

Q: Which self-cleavage does the source give for GGCAGAGCUCUACACGGCGUGGCAAAGUGGCUGUGGCUAGACUGCC [A11U A16G] here?
A: The self-cleavage was 0.04.

Q: Which self-cleavage does the source give for GGCAGAGCUCUACACCGCGUGGCAAAGUGGCUGUGGCUAGACUGCC [A11U A16C] here?
A: The self-cleavage was 0.02.

Q: Which self-cleavage does the source give for GGCAGAGCUCUACACUGCGUGGCAAAGUGGCUGUGGCUAGACUGCC [A11U A16U] here?
A: Its self-cleavage is 0.03.

Q: With GGCAGAGCUCUACACAGCGUGGCAAAGUGGCUGUGGCUCGACUGCC [A11U A39C] as the variant, how does the self-cleavage read?
A: Its self-cleavage is 0.07.

Q: For GGCAGAGCUCUACACAGCGUGGCAAAGUGGCUGUGGCUGGACUGCC [A11U A39G], which self-cleavage is on record?
A: The self-cleavage was 0.06.

Q: With GGCAGAGCUCUACACAGCGUGGCAAAGUGGCUGUGGCUUGACUGCC [A11U A39U] as the variant, how does the self-cleavage read?
A: The self-cleavage was 0.05.

Q: With GGCAGAGCUCUACACAGCGUGGCAAAGUGCCUGUGGCUAGACUGCC [A11U G30C] as the variant, how does the self-cleavage read?
A: Its self-cleavage is 0.13.

Q: With GGCAGAGCUCUACACAGCGUGGCAAAGUGACUGUGGCUAGACUGCC [A11U G30A] as the variant, how does the self-cleavage read?
A: The self-cleavage was 0.17.
